One block for each molecule: values may come before it.
Assays:
Type in all cases: biochemical
[1] = Aminotransferase activity, reverse direction (7-aminoheptanoate to 7-oxoheptanoate), L-alanine formation by RP-HPLC; settings: cell free extract, 10 mM substrate, 25° C., 4 h, against empty vector control, FIG. 48
Experimental: (§1) A sequence encoding an N-terminal His-tag was added to the genes from Chromobacterium violaceum, Pseudomonas syringae, Rhodobacter sphaeroides, and Vibrio Fluvialis encoding the aminotransferases of SEQ ID NOs: 116 (GenBank Accession No. AAQ59697.1), 126 (GenBank Accession No. AAY39893.1), 127 (GenBank Accession No. ABA81135.1), and 128 (GenBank Accession No. AEA39183.1), respectively such that N-terminal HIS tagged aminotransferases could be produced. Each of the resulting modified genes was cloned into a pET21a expression vector under control of the T7 promoter and each expression vector was transformed into a BL21 [DE3] E. coli host. The resulting recombinant E. coli strains were cultivated at 37° C. in a 250 mL shake flask culture containing 50 mL LB media and antibiotic selection pressure, with shaking at 230 rpm. Each culture was induced overnight at 16° C. using 1 mM IPTG.
(§2) The pellet from each induced shake flask culture was harvested via centrifugation. Each pellet was resuspended and lysed via sonication. The cell debris was separated from the supernatant via centrifugation and the cell free extract was used immediately in enzyme activity assays.
Enzyme activity assays in the reverse direction (i.e., 7-aminoheptanoate to 7-oxoheptanoate) were performed in a buffer composed of a final concentration of 50 mM HEPES buffer (pH=7.5), 10 mM 7-aminoheptanoate, 10 mM pyruvate and 100 μM pyridoxyl 5′ phosphate. Each enzyme activity assay reaction was initiated by adding cell free extract of the aminotransferase gene product or the empty vector control to the assay buffer containing the 7-aminoheptanoate and incubated at 25° C. for 4 h, with shaking at 250 rpm. The formation of L-alanine from pyruvate was quantified via RP-HPLC.

[2] = Aminotransferase activity, forward direction (7-oxoheptanoate to 7-aminoheptanoate), pyruvate formation by RP-HPLC; settings: cell free extract, 10 mM substrate, 10 mM L-alanine, 25° C., 4 h, against empty vector control, FIG. 49
Experimental: as §1
The pellet from each induced shake flask culture was harvested via centrifugation. Each pellet was resuspended and lysed via sonication. […]
Enzyme activity in the forward direction (i.e., 7-oxoheptanoate to 7-aminoheptanoate) was confirmed for the aminotransferases of SEQ ID NO: 126 (GenBank Accession No. AAY39893.1), SEQ ID NO: 127 (GenBank Accession No. ABA81135.1), and SEQ ID NO: 128 (GenBank Accession No. AEA39183.1). […] The formation of pyruvate was quantified via RP-HPLC.

[3] = Aminotransferase activity, 7-aminoheptanol to 7-oxoheptanol, L-alanine formation by RP-HPLC; settings: cell free extract, 10 mM substrate, 25° C., 4 h, against empty vector control, FIG. 52
Experimental: (§3) A nucleotide sequence encoding an N-terminal His-tag was added to the Chromobacterium violaceum, Pseudomonas syringae and Rhodobacter sphaeroides genes encoding the aminotransferases of SEQ ID NOs: 116 (GenBank Accession No. AAQ59697.1), 126 (GenBank Accession No. AAY39893.1), and 127 (GenBank Accession No. ABA81135.1), respectively such that N-terminal HIS tagged aminotransferases could be produced. The modified genes were cloned into a pET21a expression vector under the T7 promoter. Each expression vector was transformed into a BL21[DE3] E. coli host. Each resulting recombinant E. coli strain were cultivated at 37° C. in a 250 mL shake flask culture containing 50 mL LB media and antibiotic selection pressure, with shaking at 230 rpm. Each culture was induced overnight at 16° C. using 1 mM IPTG.
as §2
Enzyme activity assays in the reverse direction (i.e., 7-aminoheptanol to 7-oxoheptanol) were performed in a buffer composed of a final concentration of 50 mM HEPES buffer (pH=7.5), 10 mM 7-aminoheptanol, 10 mM pyruvate, and 100 μM pyridoxyl 5′ phosphate. […] The formation of L-alanine was quantified via RP-HPLC.

[4] = Aminotransferase activity, heptane-1,7-diamine to 7-aminoheptanal, L-alanine formation by RP-HPLC; settings: cell free extract, 10 mM substrate, 25° C., 4 h, against empty vector control, FIG. 50
Experimental: as §3, with “A” for “A nucleotide”, “aeruginosa, Pseudomonas syringae, Rhodobacter sphaeroides, Escherichia coli,” for “syringae”, “Vibrio fluvialis” for “Rhodobacter sphaeroides”, “AAQ59697.1), 119 (RefSeq Accession No. NP_417544.5), 125 (GenBank Accession No. AAGO8191.1),” for “AAQ59697.1),”, “AAY39893.1),” for “AAY39893.1), and”, “ABA81135.1), and 128 (GenBank Accession No. AEA39183.1),” for “ABA81135.1),”
as §2
Enzyme activity assays in the reverse direction (i.e., heptane-1,7-diamine to 7-aminoheptanal) were performed in a buffer composed of a final concentration of 50 mM HEPES buffer (pH=7.5), 10 mM heptane-1,7-diamine, 10 mM pyruvate, and 100 μM pyridoxyl 5′ phosphate. Each enzyme activity assay reaction was initiated by adding cell free extract of the aminotransferase gene product or the empty vector control to the assay buffer containing the heptane-1,7-diamine and then incubated at 25° C. for 4 h, with shaking at 250 rpm. The formation of L-alanine was quantified via RP-HPLC.

[5] = Aminotransferase activity, N7-acetyl-1,7-diaminoheptane to N7-acetyl-7-aminoheptanal, L-alanine formation by RP-HPLC; settings: cell free extract, 10 mM substrate, 25° C., 4 h, against empty vector control, FIG. 51
Experimental: The activity of the N-terminal His-tagged aminotransferases of SEQ ID NOs: 116 (GenBank Accession No. AAQ59697.1), 119 (RefSeq Accession No. NP_417544.5), 125 (GenBank Accession No. AAGO8191.1), 126 (GenBank Accession No. AAY39893.1), 127 (GenBank Accession No. ABA81135.1), and 128 (GenBank Accession No. AEA39183.1) (see Example 6) for converting N7-acetyl-1,7-diaminoheptane to N7-acetyl-7-aminoheptanal was assayed using a buffer composed of a final concentration of 50 mM HEPES buffer (pH=7.5), 10 mM N7-acetyl-1,7-diaminoheptane, 10 mM pyruvate and 100 μM pyridoxyl 5′ phosphate. Each enzyme activity assay reaction was initiated by adding a cell free extract of the aminotransferases or the empty vector control to the assay buffer containing the N7-acetyl-1,7-diaminoheptane then incubated at 25° C. for 4 h, with shaking at 250 rpm. The formation of L-alanine was quantified via RP-HPLC.

acceptance of 7-aminoheptanoate as substrate [1]: accepted 7-aminoheptanote as substrate | acceptance of 7-oxoheptanoate as substrate, forming 7-aminoheptanoate [2]: accepted 7-oxoheptanoate as a substrate | acceptance of 7-aminoheptanol as substrate, forming 7-oxoheptanol [3]: accepted 7-aminoheptanol as a substrate
B1: SEQ ID NO: 126: Pseudomonas syringae aminotransferase (protein)
chain: MSANNPQTLEWQALSSEHHLAPFSDYKQLKEKGPRIITRAEGVYLWDSEGNKILDGMSGLWCVAIGYGREELADAASKQMRELPYYNLFFQTAHPPVLELAKAISDIAPEGMNHVFFTGSGSEGNDTMLRMVRHYWALKGQPNKKTIISRVNGYHGSTVAGASLGGMTYMHEQGDLPIPGVVHIPQPYWFGEGGDMTPDEFGIWAAEQLEKKILELGVENVGAFIAEPIQGAGGVIVPPDSYWPKIKEILSRYDILFAADEVICGFGRTSEWFGSDFYGLRPDMMTIAKGLTSGYVPMGGLIVRDEIVAVLNEGGDFNHGFTYSGHPVAAAVALENIRILREEKIVERVRSETAPYLQKRLRELSDHPLVGEVRGVGLLGAIELVKDKTTRERYTDKGAGMICRTFCFDNGLIMRAVGDTMIIAPPLVISFAQIDELVEKARTCLDLTLAVLQG
modifications: Pseudomonas syringae pv. syringae (strain B728a)
notes: Pseudomonas syringae aminotransferase
acceptance of heptane-1,7-diamine as substrate, forming 7-aminoheptanal [4]: accepted heptane-1,7-diamine as substrate | acceptance of N7-acetyl-1,7-diaminoheptane as substrate, forming N7-acetyl-7-aminoheptanal [5]: accepted N7-acetyl-1,7-diaminoheptane as a substrate

acceptance of 7-aminoheptanoate as substrate [1]: accepted 7-aminoheptanote as substrate | acceptance of 7-aminoheptanol as substrate, forming 7-oxoheptanol [3]: accepted 7-aminoheptanol as a substrate
B2: SEQ ID NO: 116: Chromobacterium violaceum aminotransferase (protein, listed as Chromobacterium violaceum)
chain: MQKQRTTSQWRELDAAHHLHPFTDTASLNQAGARVMTRGEGVYLWDSEGNKIIDGMAGLWCVNVGYGRKDFAEAARRQMEELPFYNTFFKTTHPAVVELSSLLAEVTPAGFDRVFYTNSGSESVDTMIRMVRRYWDVQGKPEKKTLIGRWNGYHGSTIGGASLGGMKYMHEQGDLPIPGMAHIEQPWWYKHGKDMTPDEFGVVAARWLEEKILEIGADKVAAFVGEPIQGAGGVIVPPATYWPEIERICRKYDVLLVADEVICGFGRTGEWFGHQHFGFQPDLFTAAKGLSSGYLPIGAVFVGKRVAEGLIAGGDFNHGFTYSGHPVCAAVAHANVAALRDEGIVQRVKDDIGPYMQKRWRETFSRFEHVDDVRGVGMVQAFTLVKNKAKRELFPDFGEIGTLCRDIFFRNNLIMRACGDHIVSAPPLVMTRAEVDEMLAVAERCLEEFEQTLKARGLA
modifications: Chromobacterium violaceum (strain ATCC 12472 / DSM 30191 / JCM 1249 / NBRC 12614 / NCIMB 9131 / NCTC 9757)
notes: Chromobacterium violaceum aminotransferase
acceptance of heptane-1,7-diamine as substrate, forming 7-aminoheptanal [4]: accepted heptane-1,7-diamine as substrate | acceptance of N7-acetyl-1,7-diaminoheptane as substrate, forming N7-acetyl-7-aminoheptanal [5]: accepted N7-acetyl-1,7-diaminoheptane as a substrate

From patent US10801046B2, “Methods and materials for biosynthesizing multifunctional, multivariate molecules via carbon chain modification” (INVISTA NORTH AMERICA S.A.R.L., priority 2016, dated 2020)
